From publication PMC8921277
pKd: −log10 of the molar value.

Target: RSV F DS-Cav1 (human respiratory syncytial virus) (UniProt P03420)
Experiment: BLI; […] (AHC) biosensors, […] (300-0.41 nM); Octet RED96e; […]

MPE8 Fab, sequence (VH): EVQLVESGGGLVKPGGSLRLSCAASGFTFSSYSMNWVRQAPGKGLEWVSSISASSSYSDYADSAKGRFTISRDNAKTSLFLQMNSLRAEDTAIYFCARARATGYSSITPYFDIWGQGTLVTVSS
MPE8 Fab, sequence (VL): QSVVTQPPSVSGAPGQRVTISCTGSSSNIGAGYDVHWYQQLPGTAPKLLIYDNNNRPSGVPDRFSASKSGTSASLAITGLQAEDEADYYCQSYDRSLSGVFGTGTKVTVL
UniProt P03420, sequence (P03420 26-513): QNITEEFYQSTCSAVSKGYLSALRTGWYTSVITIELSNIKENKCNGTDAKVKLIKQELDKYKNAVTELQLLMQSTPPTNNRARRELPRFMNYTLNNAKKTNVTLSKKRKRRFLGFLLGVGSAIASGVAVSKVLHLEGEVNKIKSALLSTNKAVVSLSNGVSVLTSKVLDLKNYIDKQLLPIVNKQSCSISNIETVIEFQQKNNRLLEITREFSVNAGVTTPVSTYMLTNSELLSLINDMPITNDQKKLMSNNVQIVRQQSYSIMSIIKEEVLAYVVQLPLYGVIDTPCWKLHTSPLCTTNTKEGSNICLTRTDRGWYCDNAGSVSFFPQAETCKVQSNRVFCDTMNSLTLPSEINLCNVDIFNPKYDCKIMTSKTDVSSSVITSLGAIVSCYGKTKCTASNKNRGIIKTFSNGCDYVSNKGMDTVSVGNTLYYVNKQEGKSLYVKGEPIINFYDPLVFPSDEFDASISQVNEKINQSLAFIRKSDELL

MPE8 Fab
pKd: > 12.00
koff: < 1e-07 s⁻¹
kon: 360000 M⁻¹ s⁻¹
